Assay results published in patent US20250092112A1 (HEMOGENYX PHARMACEUTICALS, published 2025).

Target: T1, SARS-CoV-2 Spike protein (wild-type), biotinylated (MyBioSource) (SARS-CoV-2, UniProt P0DTC2 16-1213)
T1 construct: also called WT SARS-CoV-2 Spike; wild-type Spike
Assay: binding of spike to ACE2-fragment constructs; assay not described

Row | Binder | binding result
1 | CAR-based construct 1: CD8 signal peptide+ACE2 (19-358)+CD8 hinge+CD8 TM domain+CD3ζ intracellular domain (receptor, domain: CD8 hinge;domain: CD8 TM domain;domain: CD3ζ intracellular domain) not shown | no binding
2 | CAR-based construct 2: CD8 signal peptide+ACE2 (19-605)+CD8 hinge+CD8 TM domain+CD3ζ intracellular domain (receptor, domain: CD8 hinge;domain: CD8 TM domain;domain: CD3ζ intracellular domain) not shown | no binding
